Results reported in the domain aggregation screens of Martell et al. (2025).

Test: soluble fraction after stress (log2 fold change); higher = more stays soluble; pooled small domains, quantitative proteomics
Settings: stress: pH 4
Summary of the method: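 Custom libraries of small protein domains were pooled and exposed to pH 4. High-throughput quantitative proteomics then measured the log2 fold change in the amount of each domain still soluble, with higher values meaning more stayed soluble. This soluble-fraction fold change stands for aggregation propensity.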

Sequence | soluble fraction (log2)
HMAADWTAIKLAYVNGGMSMRELAQRFHVGAAGLMKRAAKEGWEAERQQNSAKVSNAAQMLIN | 0.125
HMAAEEAFPGGRIVQNAEENRLQILFDEIPGEDVRAALKSHGFRWSPKNKAWQRQLTQNAEYDARRILGI | -0.033
HMAAEELTVDKILTAQSFGVTAEAILAKVNDPANTVATLTQADVDRLRAAGVPEGVVTALQARAPQ | -0.155
HMAAENAVGARVKALREAMDLSLRDLSERSGVSPTMLSQVERGSTSPTLAVAEKIAAGLDLSLSQLLRL | 0.124
HMAAGADEATTVPNVSGDTLNQAIKSLKAEGLGYMLSGAGARVRDQMPEPGAEMTKGSVVMLYMDGDAEVD | 0.399
HMAAGVESLTEKEFAVASLVGGGASNREIAERLAMSERTVKSHLSSIFRKMDVRDRVQLALAMND | -0.0425
HMAAIPATVDEETYRRLKPMLKQYGILYHEFKPLRSGKKGAVELIFMEKDLALVQELLSRLKKEK | -0.0159
HMAAIPEQVSEEVVSAVKASGIDPGKVTKEQWTSLLKGRRTALGSSSGKLFMLSKAPVGYTLKAVNA | -0.000834
HMAAMDMFVKLDALDAELTEQLKALPAEPDDARVERGLALLTDYDHRIKALLTEIFGGENDFDKVL | -2.25
HMAAPPPLSDYRNMQEAEHIRNILLQHHGNVRRAAAALELSRPYLYQKMKQLGINIAELRELSLSHSS | 0.161
HMAASEAESIRILLSEGVDRVHLRKPQSAEADMRRLIEALPPELYPRLTLQDHLHLAGEYGT | -0.162
HMAATGPLTPREAEIARLAAGHLSNRQIAEQLVVSERTVENHLYRIFIKLAVTGRDDLAAALAATEQ | -1.17
HMAATNVKVPDLKGWDYNNAVGKYGDKLSFVKKSIYSDSVSKGIIIYNARVGETVAQGTTIEVTVSLGPKG | 0.0127
HMAAVPYQVKITTEDLRIRTGPGTNHDFTGQYTGKGVFTIVEESEGSGAPIWGRLKSGAGWIGIDPSWSVR | -0.524
HMADAGQTTAATELKQAPNAGSATISQLSAGQTLQIGTRQGAWYQVKTPQGEGWVRMLSVRLQ | 0.0688
HMADEGFRQTVLAVLARWESKIHHGQYNALKAKVMNGNWSSFVKQVVKFQGKFIHPDAAKELLGLFG | -1.17
HMADFIKEIKTNNPRQLLKSILSSFMPRALILELEMLLWNDLKSKPIGEWSNTQIENVGKLLNNWILKPAA | 0.164

Sequence | soluble fraction (log2)
HMADIWDLLRSEYKLTETDVRMLTDMLPDELMNDFRSEVLALRDRMNRYKVNNPKSYVVTSLKNFIIQHTP | -0.787
HMADKNIIGVLSAADNLGKVRITTANGEKYIITVPDGLSDIVKTYWEEEVSVKYVIEKRRKILVDIDG | -0.47
HMADLIIMSSDATEKQVDKVINKIKNMGFNVNISKGTEKTIIGIIGDTRGISDEVFKIMPGVIEVISILRD | -0.38
HMADLIVFTTDANKEKKVDDETYFYLDVVSDGKLVENYELTEKQYNYIKDLGVGEYVYNEKGKLDSYTAFT | -1.12
HMADPLQLLEQQRQDYIQAVTEYLNSHPNAKPIWDVMKKDAGYGDMKLTDIPLGILKKLYITLT | -0.137
HMADRVFGHIPGVAVGSIFPDRRSLSQTGVHRPTQAGISGNKTDGADSIVVSGGYRDDRDYGDLIIYTG | -0.746
HMADTFVMPDLVYRRYEPVRGYFERGGFHMGAVKFEPYEGISDGTILRQNPLPGHPLRRRDVISLVVAAS | -0.464
HMADYYETLGVERTASEEDIKRAYRKMSRKYHPDIAGPEFEEKFKEVNTAYEVLSDPDKRRMYDAGVDPND | 0.0648
HMADYYSILGLTKNATDIEIKSAFRKLAKIYHPDKNPDPNARVLFEHILKAYDTLINPHSRRRYDSL | 0.22
HMAEELELFHRLISVTGVGPKGALGFLSQLKPQEIILAILSDDVKTLSKAPGVGRKTAQRVILELKDKF | -0.828
HMAEGPYSGKKVEKYPGGMEKRETMYSEGKLTRVTEFHQSGQKKMEVKVDANGQWKRLYWDNNGNPT | -0.086
HMAEIIVHEINRHLGESDEPVEFPEERREEAVAELLKNFHNDDAFRKMDDGKYEVALDGEAVREAARSLLA | -0.256
HMAELTTVQAADILHVSRPFLIKLLDEGQIPYHRVGKHRRIRMEDVMNYKRAIDQQREAVLDQLVAEA | 0.014
HMAEMLQDVLNMLSAKDREILVRYYYYYESVKQVAAEMQMSESAVKMRMSRARKKMQQELIDKG | -0.704
HMAEPAEDLLSLEGMDKGLAYQLASNGVVTREDLAELATDDLLEIREMDAEQAAALIMKAREHWFEAEQQ | -1.94
HMAEPEALLAMAQRILGEEVAQSLFQGAAREQGKEGYLPDPTPAFLDALEARLSGSVGAATAHAMISQLVG | -0.473
HMAEPSTSYTQFMDQAKEGKIKRVDVQGRTLTVTPTEGATYKITAPGDLWMVEDLRKAGVQVYGQP | 0.076
